According to paper PMC10832047:

Biological target: HIV-1 capsid protein (CA), wild type (HIV-1 (NL4-3 / R9 clones))

owl-monkey TRIMCyp (natural protein)
TRIMCyp restriction assay: infectivity of control pseudoviruses with pure CA^WT cores in TZM-bl cells expressing TRIMCyp, 48 h (fold reduction in infection): 10
